Test results as given in US20260345742 (published 2026).
Ends that are not written are not given here.

Key:
human ACE2 [1] = target: T1, human ACE2 (human, UniProt Q9BYF1); experiment: SPR, 37C
human ACE2 [2] = target: T1, human ACE2; experiment: SPR, 37C; remark: listed apart in the source
human ACE2 [3] = target: T1, human ACE2; experiment: SPR
human ACE2 [4] = target: T1, human ACE2; experiment: SPR; given as Ka

T1 sequence (Q9BYF1 18-740): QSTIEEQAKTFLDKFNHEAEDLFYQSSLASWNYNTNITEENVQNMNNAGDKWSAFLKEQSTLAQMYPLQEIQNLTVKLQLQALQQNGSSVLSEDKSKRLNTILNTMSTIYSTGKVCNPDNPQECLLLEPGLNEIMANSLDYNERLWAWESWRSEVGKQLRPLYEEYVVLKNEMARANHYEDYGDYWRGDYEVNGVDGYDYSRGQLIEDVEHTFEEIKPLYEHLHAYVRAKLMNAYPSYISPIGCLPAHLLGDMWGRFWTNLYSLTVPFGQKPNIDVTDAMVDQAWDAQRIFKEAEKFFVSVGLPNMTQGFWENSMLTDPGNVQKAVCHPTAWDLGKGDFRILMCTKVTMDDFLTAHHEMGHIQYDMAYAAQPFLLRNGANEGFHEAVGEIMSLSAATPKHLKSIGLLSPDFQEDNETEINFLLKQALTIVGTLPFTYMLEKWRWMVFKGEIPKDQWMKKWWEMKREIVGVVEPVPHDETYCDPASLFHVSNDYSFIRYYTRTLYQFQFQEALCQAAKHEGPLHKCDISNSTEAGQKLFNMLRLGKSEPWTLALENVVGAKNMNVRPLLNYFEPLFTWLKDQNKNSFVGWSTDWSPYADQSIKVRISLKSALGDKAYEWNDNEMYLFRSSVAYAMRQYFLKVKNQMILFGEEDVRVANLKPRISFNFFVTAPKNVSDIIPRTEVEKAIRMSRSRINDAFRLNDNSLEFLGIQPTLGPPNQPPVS

Row | Binder | Kd (human ACE2 [1]) [nM] | Kd (human ACE2 [2]) [nM] | Kd (human ACE2 [3]) [nM] | Kd (human ACE2 [4]) [nM]
1 | FPIPLPYYWLYRALIKRIQALIPKGGRLLPQLVYRLVLRYS (also: biotinylated (site not given here)) [B-YL (biotinylated)] | 4370 | 4370 |  | 
2 | FPIPLPYCWLCRALIKRIQAMIPKGGRMLPQLVCRLVLRCS [Super Mini-B (SMB)] |  |  | 9.87 | 9.9
